Holding throughout (details): 20 nM; 72 h
In series [1] the test system is MCF10A. The experiment in a line: 5+ nucleoli phenotype percent effect (relative to siNT 0% and siKIF11 100%); higher = more cells with five or more nucleoli. The protocol:
(§1)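 After 72 h, cells were fixed and stained with Hoechst and anti-fibrillarin, and nucleoli per nucleus were counted with CellProfiler. Values are plate-adjusted percent effect for the one-nucleolus and 5+ nucleoli phenotypes, normalised to siNT (0%) and to the positive controls siNOL11 or siKIF11 (100%), as the mean of biological triplicates. Percent viability is the nuclei count relative to siNT.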

In series [2] the test system is MCF10A. The experiment in a line: percent viability (nuclei count relative to siNT); higher = more viable cells. As for the experimental part: as §1
The subject of series [3] is MCF10A. The experiment in a line: one-nucleolus phenotype percent effect (relative to siNT 0% and siNOL11 100%); higher = more cells with one nucleolus (ribosome biogenesis inhibition). As for the experimental part: as §1

On to UGGAGAGAAAGGCAGUUCCUGA [hsa-miR-185-5p], for which the “5+ nucleoli phenotype percent effect” value in the series with MCF10A [1] was -10.1%. The percent viability with MCF10A [2] worked out at 21.7%. Further, in the series with MCF10A [3], the “one-nucleolus phenotype percent effect” value stood at 5.33%.

On to UGGAGAGAGAAAAGAGACAGAAG [hsa-miR-4644], for which the “5+ nucleoli phenotype percent effect” value with MCF10A [1] turned out to be 39.4%. Further, the percent viability with MCF10A [2] was 74.5%. Moreover, the “one-nucleolus phenotype percent effect” value in the series on MCF10A [3] was -24.6%.

UGGAGAUCCAGUGCUCGCCCGAU [hsa-miR-4683]: the “5+ nucleoli phenotype percent effect” value with MCF10A [1] was -20.1%. Besides, the percent viability in the series on MCF10A [2] is 56.7%. Besides, the “one-nucleolus phenotype percent effect” value with MCF10A [3] is 24.4%.

For the sequence UGGAGGAGAAGGAAGGUGAUG [hsa-miR-765], in the series on MCF10A [1], the “5+ nucleoli phenotype percent effect” value came to 16.3%. Besides, the percent viability in the series with MCF10A [2] is 21.1%. Besides, the “one-nucleolus phenotype percent effect” value in the series with MCF10A [3] is 26.5%.

Take UGGAGUGUGACAAUGGUGUUUG [hsa-miR-122-5p]: the “5+ nucleoli phenotype percent effect” value in the series with MCF10A [1] is 14.4%. Moreover, the percent viability in the series with MCF10A [2] was determined as 52.7%. In addition, in the series with MCF10A [3], the “one-nucleolus phenotype percent effect” value was -11.4%.

Turning to “UGGAGUUAAGGGUUGCUUGGAGA [hsa-miR-4653-3p]”, the “5+ nucleoli phenotype percent effect” value with MCF10A [1] was -39.9%. Also, the percent viability with MCF10A [2] was found to be 12.9%. In addition, the “one-nucleolus phenotype percent effect” value with MCF10A [3] was found to be 47.6%.

In the case of UGGAUAUGAUGACUGAAA [hsa-miR-4791], in the series with MCF10A [1], the “5+ nucleoli phenotype percent effect” value amounted to 4.66%. Moreover, the percent viability with MCF10A [2] came to 71.5%. Moreover, the “one-nucleolus phenotype percent effect” value in the series on MCF10A [3] is -7.67%.

On to UGGAUGACAGUGGAGGCCU [hsa-miR-6744-5p], for which, in the series with MCF10A [1], the “5+ nucleoli phenotype percent effect” value is -19.1%. The percent viability in the series with MCF10A [2] worked out at 20.5%. The “one-nucleolus phenotype percent effect” value in the series on MCF10A [3] was 37.8%.

In the case of UGGAUGUGGAAGGAGUUAUCU [hsa-miR-4764-5p], in the series with MCF10A [1], the “5+ nucleoli phenotype percent effect” value is -8.02%. In addition, the percent viability in the series on MCF10A [2] came to 7.49%. In the series with MCF10A [3], the “one-nucleolus phenotype percent effect” value is -0.862%.

Take UGGAUUUCUUUGUGAAUCACCA [hsa-miR-876-5p]: the “5+ nucleoli phenotype percent effect” value in the series with MCF10A [1] turned out to be 24.8%. The percent viability with MCF10A [2] was 143%. For the same sequence, the “one-nucleolus phenotype percent effect” value in the series with MCF10A [3] is -21.7%.

For UGGAUUUUUGGAUCAGGGA [hsa-miR-1290], the “5+ nucleoli phenotype percent effect” value with MCF10A [1] was -26.7%. In addition, the percent viability in the series with MCF10A [2] was 51%. Further, the “one-nucleolus phenotype percent effect” value in the series with MCF10A [3] was 7%.

As to UGGCAAACGUGGAAGCCGAGA [hsa-miR-4470], the “5+ nucleoli phenotype percent effect” value in the series with MCF10A [1] was -21.5%. The percent viability in the series on MCF10A [2] was determined as 15.8%. Further, the “one-nucleolus phenotype percent effect” value in the series on MCF10A [3] turned out to be 61%.

As to UGGCAGGGAGGCUGGGAGGGG [hsa-miR-1207-5p], the “5+ nucleoli phenotype percent effect” value in the series with MCF10A [1] is -30.5%. The percent viability in the series with MCF10A [2] came out at 24.4%. For the same sequence, the “one-nucleolus phenotype percent effect” value in the series on MCF10A [3] worked out at 24.5%.

For the sequence UGGCAGUGUAUUGUUAGCUGGU [hsa-miR-449a], the “5+ nucleoli phenotype percent effect” value with MCF10A [1] is -16.3%. For the same sequence, the percent viability in the series on MCF10A [2] was 14%. The “one-nucleolus phenotype percent effect” value with MCF10A [3] is 36.9%.

“UGGCAGUUACUUUUGCACCAG [hsa-miR-548au-3p]”: the “5+ nucleoli phenotype percent effect” value in the series with MCF10A [1] was -17.4%. In the series on MCF10A [2], the percent viability worked out at 5.53%. Further, in the series on MCF10A [3], the “one-nucleolus phenotype percent effect” value was found to be 31.4%.

As to UGGCCAAAAAGCAGGCAGAGA [hsa-miR-3926], the “5+ nucleoli phenotype percent effect” value in the series on MCF10A [1] is 0.491%. The percent viability in the series with MCF10A [2] was determined as 31.6%. Also, the “one-nucleolus phenotype percent effect” value with MCF10A [3] came to 11.5%.

Regarding “UGGCCCAACCUAUUCAGUUAGU [hsa-miR-3136-3p]”, the “5+ nucleoli phenotype percent effect” value in the series with MCF10A [1] is 34.8%. Moreover, in the series with MCF10A [2], the percent viability is 140%. In addition, the “one-nucleolus phenotype percent effect” value in the series with MCF10A [3] was -25.2%.

With UGGCCCAAGACCUCAGACC [hsa-miR-7155-3p], in the series with MCF10A [1], the “5+ nucleoli phenotype percent effect” value is 18.5%. Besides, the percent viability with MCF10A [2] came to 35.1%. The “one-nucleolus phenotype percent effect” value with MCF10A [3] turned out to be 11.3%.

As for “UGGCCCGGCGACGUCUCACGGUC [hsa-miR-4745-3p]”, the “5+ nucleoli phenotype percent effect” value in the series with MCF10A [1] was 45%. Moreover, the percent viability in the series with MCF10A [2] was determined as 58.7%. The “one-nucleolus phenotype percent effect” value in the series with MCF10A [3] is -29.1%.

Regarding UGGCCCUGACUGAAGACCAGCAGU [hsa-miR-1291], the “5+ nucleoli phenotype percent effect” value in the series with MCF10A [1] was determined as 23.5%. Further, the percent viability in the series with MCF10A [2] stood at 51%. Also, the “one-nucleolus phenotype percent effect” value in the series with MCF10A [3] turned out to be 5.12%.

Consider UGGCCCUUUGUACCCCUCCAG [hsa-miR-6851-3p], for which, in the series with MCF10A [1], the “5+ nucleoli phenotype percent effect” value was 54.7%. The percent viability in the series on MCF10A [2] was 49.2%. Moreover, the “one-nucleolus phenotype percent effect” value in the series with MCF10A [3] was -21.4%.

Turning to “UGGCCGGAUGGGACAGGAGGCAU [hsa-miR-4743-5p]”, in the series on MCF10A [1], the “5+ nucleoli phenotype percent effect” value is -11.6%. For the same sequence, the percent viability in the series with MCF10A [2] was found to be 25.6%. In addition, in the series with MCF10A [3], the “one-nucleolus phenotype percent effect” value amounted to 20.6%.

Turning to UGGCGAUUUUGGAACUCAAUGGCA [hsa-miR-8053], in the series with MCF10A [1], the “5+ nucleoli phenotype percent effect” value amounted to 6.04%. The percent viability with MCF10A [2] was 36.7%. The “one-nucleolus phenotype percent effect” value with MCF10A [3] was 4.42%.

With UGGCGGCGGUAGUUAUGGGCUU [hsa-miR-4467], in the series with MCF10A [1], the “5+ nucleoli phenotype percent effect” value is -36%. In addition, the percent viability in the series on MCF10A [2] was 30.8%. Further, the “one-nucleolus phenotype percent effect” value in the series with MCF10A [3] amounted to 39.9%.
